# Columns and labels:
# [1] = biological target: T1, mouse PD-1 on doxycycline-induced 32D[pRF770+pRF791] cells (mouse, UniProt Q02242 25-288); test: cell-based or functional assay
# T1 sequence (looked up): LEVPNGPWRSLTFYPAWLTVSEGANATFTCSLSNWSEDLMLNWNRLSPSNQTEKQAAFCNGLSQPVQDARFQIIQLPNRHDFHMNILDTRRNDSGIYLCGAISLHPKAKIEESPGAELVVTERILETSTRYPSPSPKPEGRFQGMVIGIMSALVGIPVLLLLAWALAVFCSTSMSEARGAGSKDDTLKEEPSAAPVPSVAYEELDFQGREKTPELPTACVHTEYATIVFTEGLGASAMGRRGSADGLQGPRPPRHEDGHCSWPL
# [2] = biological target: T2, IL-15 signaling receptor on 32D[pRF770+pRF791] cells (human CD122 plus mouse CD132) (human; mouse, UniProt P14784 27-551; P34902 23-369); test: cell-based or functional assay
# T2 sequence (looked up) 1: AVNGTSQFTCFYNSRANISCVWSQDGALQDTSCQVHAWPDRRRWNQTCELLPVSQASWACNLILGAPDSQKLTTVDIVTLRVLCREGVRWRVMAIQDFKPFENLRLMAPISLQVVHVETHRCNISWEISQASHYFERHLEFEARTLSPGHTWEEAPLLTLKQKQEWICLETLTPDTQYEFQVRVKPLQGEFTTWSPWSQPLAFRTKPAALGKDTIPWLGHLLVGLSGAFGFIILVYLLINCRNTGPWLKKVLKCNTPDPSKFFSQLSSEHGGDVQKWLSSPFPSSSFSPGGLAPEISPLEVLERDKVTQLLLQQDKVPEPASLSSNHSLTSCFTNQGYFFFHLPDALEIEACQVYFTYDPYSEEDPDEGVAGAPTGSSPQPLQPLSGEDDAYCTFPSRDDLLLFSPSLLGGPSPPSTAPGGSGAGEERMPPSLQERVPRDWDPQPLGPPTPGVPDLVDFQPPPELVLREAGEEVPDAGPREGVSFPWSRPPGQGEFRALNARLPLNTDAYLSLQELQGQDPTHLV
# T2 sequence (looked up) 2: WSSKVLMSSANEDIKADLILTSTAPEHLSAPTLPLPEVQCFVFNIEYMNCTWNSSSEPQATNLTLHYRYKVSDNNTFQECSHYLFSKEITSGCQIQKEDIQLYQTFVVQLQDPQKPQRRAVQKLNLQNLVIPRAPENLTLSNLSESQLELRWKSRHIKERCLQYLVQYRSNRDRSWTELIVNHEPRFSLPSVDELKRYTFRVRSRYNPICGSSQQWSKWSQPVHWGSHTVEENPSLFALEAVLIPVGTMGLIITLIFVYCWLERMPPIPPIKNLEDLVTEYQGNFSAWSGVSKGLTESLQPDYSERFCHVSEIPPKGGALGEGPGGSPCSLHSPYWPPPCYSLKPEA
# human IL-2Rβ [3] = biological target: T3, human IL-2Rβ (human, UniProt P14784 27-240, limits assumed); test: SPR, steady state, fusion captured
# T3 construct: also called hIL-2Rβ; IL-2 receptor beta
# T3 sequence (looked up): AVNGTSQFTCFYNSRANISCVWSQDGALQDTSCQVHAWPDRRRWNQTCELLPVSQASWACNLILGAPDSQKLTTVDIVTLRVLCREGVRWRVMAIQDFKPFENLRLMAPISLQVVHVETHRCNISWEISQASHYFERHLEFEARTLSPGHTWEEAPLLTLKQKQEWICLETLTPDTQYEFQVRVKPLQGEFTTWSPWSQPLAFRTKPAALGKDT
# Experimental: Anti-human Fc sensor chips were prepared at 25° C. with a running buffer of 10 mM HEPES, 150 mM NaCl, 0.05% (v/v) Tween-20, pH 7.4. All surfaces of a Biacore CM4 sensor chip were activated with a 1:1 (v/v) mixture of 400 mM EDC and 100 mM NHS for 7 minutes, at a flow rate of 10 μL/min. An anti-human Fc reagent (Goat anti-human IgG Fc-γ specific, SouthernBiotech, Birmingham, Ala., Catalog #2014-01) was diluted to 50 μg/mL in 10 mM sodium acetate (pH 4.5) and injected on all flow cells for 7 minutes at 20 μL/min. All flow cells were blocked with 100 mM ethylenediamine in 200 mM Borate buffer pH 8.5 for 7 minutes at 10 μL/min.
# All protein interaction experiments were performed at 37° C. using a running buffer of 10 mM HEPES, 150 mM NaCl, 0.05% (v/v) Tween-20, pH 7.4, 1 mg/mL BSA. Anti-PD-1-hIL-15 fusion proteins were captured at 10 μg/mL at a flow rate of 10 μL/min for 2 minutes. Different fusion proteins were captured in flow cells 2, 3 and 4. No protein was captured onto flow cell 1 which was used as a reference surface. […] After each analyte injection, dissociation was monitored for 5 minutes followed by regeneration of all flow cells with three 60-second injections of 75 mM phosphoric acid. […] For kinetic analysis, the double-referenced sensorgrams were fit globally to a simple 1:1 Langmuir with mass transport binding model using Biacore T200 Evaluation Software version 2.0. For steady-state affinity analysis, the double-referenced equilibrium binding responses were fit with a 1:1 Langmuir steady-state model using Biacore T200 Evaluation Software version 2.0.
# human IL-15Rα = biological target: T4, human IL-15Rα (human, UniProt Q13261 31-205, limits assumed); test: SPR 37C, fusion captured by anti-human Fc
# T4 construct: also called hIL-15Rα; IL-15 receptor alpha
# T4 sequence (Q13261 31-205 limits assumed): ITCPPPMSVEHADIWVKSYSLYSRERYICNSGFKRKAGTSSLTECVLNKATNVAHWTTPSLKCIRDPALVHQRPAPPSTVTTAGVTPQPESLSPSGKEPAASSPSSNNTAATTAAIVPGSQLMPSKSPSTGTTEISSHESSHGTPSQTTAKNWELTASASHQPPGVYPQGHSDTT
# How it was run: (§1)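 Anti-PD-1–hIL-15 fusions captured at 10 μg/mL on an anti-human Fc surface, receptor injected at 37 °C in HEPES-buffered saline with 0.05% Tween-20 and 1 mg/mL BSA, pH 7.4; 5 min dissociation.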
# human IL-2Rβ [4] = biological target: T3, human IL-2Rβ; test: SPR, fusion captured
# How it was run: as §1
Binder,Fold change = EC50 (PD-1(low))/EC50 (PD-1+) [1] [fold],pSTAT5 EC50 on PD-1+ 32D reporter cells [1],pSTAT5 EC50 on PD-1(low) 32D reporter cells [2] [nM],Kd (human IL-2Rβ [3]) [nM],binding result (human IL-15Rα),Kd (human IL-2Rβ [4]) [nM]
"xmPD-1-IL15 m1 (other, also called xmPD-1-hIL15 V49R/E46G/N1A/D30N) heavy 1: EVQLVESGGGLVKPGGSLELSCAASGFTFSSYWMSWVRQAPEKGLEWVAAISPSGGSTYYADSVKGRFTISRDNAKNTLFLQMTSLRSEDTAMYYCAKESWGAYYDLWGQGTTVTVSSASTKGPSVFPLAPSSKSTSGGTAALGCLVKDYFPEPVTVSWNSGALTSGVHTFPAVLQSSGLYSLSSVVTVPSSSLGTQTYICNVNHKPSNTKVDKKVEPKSCDKTHTCPPCPAPEAAGAPSVFLFPPKPKDTLMISRTPEVTCVVVDVSHEDPEVKFNWYVDGVEVHNAKTKPREEQYNSTYRVVSVLTVLHQDWLNGKEYKCKVSNKALPAPIEKTISKAKGQPREPQVYTLPPCREEMTKNQVSLSCAVKGFYPSDIAVEWESNGQPENNYKTTPPVLDSDGSFFLVSKLTVDKSRWQQGNVFSCSVMHEALHNHYTQKSLSLSPGSGGGGSGGGGSGGGGAWVNVISDLKKIEDLIQSMHIDATLYTESNVHPSCKVTAMKCFLLGLQRISLESGDASIHDTVENLIILANNSLSSNGNVTESGCKECEELEEKNIKEFLQSFVHIVQMFINTS heavy 2: EVQLVESGGGLVKPGGSLELSCAASGFTFSSYWMSWVRQAPEKGLEWVAAISPSGGSTYYADSVKGRFTISRDNAKNTLFLQMTSLRSEDTAMYYCAKESWGAYYDLWGQGTTVTVSSASTKGPSVFPLAPSSKSTSGGTAALGCLVKDYFPEPVTVSWNSGALTSGVHTFPAVLQSSGLYSLSSVVTVPSSSLGTQTYICNVNHKPSNTKVDKKVEPKSCDKTHTCPPCPAPEAAGAPSVFLFPPKPKDTLMISRTPEVTCVVVDVSHEDPEVKFNWYVDGVEVHNAKTKPREEQYNSTYRVVSVLTVLHQDWLNGKEYKCKVSNKALPAPIEKTISKAKGQPREPQVCTLPPSREEMTKNQVSLWCLVKGFYPSDIAVEWESNGQPENNYKTTPPVLDSDGSFFLYSKLTVDKSRWQQGNVFSCSVMHEALHNHYTQKSLSLSPGK light: DIVMTQSPSSLSVSAGDKVTMSCRASQGISSWLAWYQQKPWQPPKLLIYKASTLESGVPDRFTGSGSGTDFTLTISSVQAEDLAVYYCQQSYSTPWTFGGGTKLEIKGTVAAPSVFIFPPSDEQLKSGTASVVCLLNNFYPREAKVQWKVDNALQSGNSQESVTEQDSKDSTYSLSSTLTLSKADYEKHKVYACEVTHQGLSSPVTKSFNRGEC",1450,53.1 pM,76.9,433,no binding (tested: 3000 nM),–
"xmPD-1-IL15 m2 (other, also called xmPD-1-hIL15 V49R/E46G/N1G/E64Q/D30N) heavy 1: EVQLVESGGGLVKPGGSLELSCAASGFTFSSYWMSWVRQAPEKGLEWVAAISPSGGSTYYADSVKGRFTISRDNAKNTLFLQMTSLRSEDTAMYYCAKESWGAYYDLWGQGTTVTVSSASTKGPSVFPLAPSSKSTSGGTAALGCLVKDYFPEPVTVSWNSGALTSGVHTFPAVLQSSGLYSLSSVVTVPSSSLGTQTYICNVNHKPSNTKVDKKVEPKSCDKTHTCPPCPAPEAAGAPSVFLFPPKPKDTLMISRTPEVTCVVVDVSHEDPEVKFNWYVDGVEVHNAKTKPREEQYNSTYRVVSVLTVLHQDWLNGKEYKCKVSNKALPAPIEKTISKAKGQPREPQVYTLPPCREEMTKNQVSLSCAVKGFYPSDIAVEWESNGQPENNYKTTPPVLDSDGSFFLVSKLTVDKSRWQQGNVFSCSVMHEALHNHYTQKSLSLSPGSGGGGSGGGGSGGGGGWVNVISDLKKIEDLIQSMHIDATLYTESNVHPSCKVTAMKCFLLGLQRISLESGDASIHDTVQNLIILANNSLSSNGNVTESGCKECEELEEKNIKEFLQSFVHIVQMFINTS heavy 2: EVQLVESGGGLVKPGGSLELSCAASGFTFSSYWMSWVRQAPEKGLEWVAAISPSGGSTYYADSVKGRFTISRDNAKNTLFLQMTSLRSEDTAMYYCAKESWGAYYDLWGQGTTVTVSSASTKGPSVFPLAPSSKSTSGGTAALGCLVKDYFPEPVTVSWNSGALTSGVHTFPAVLQSSGLYSLSSVVTVPSSSLGTQTYICNVNHKPSNTKVDKKVEPKSCDKTHTCPPCPAPEAAGAPSVFLFPPKPKDTLMISRTPEVTCVVVDVSHEDPEVKFNWYVDGVEVHNAKTKPREEQYNSTYRVVSVLTVLHQDWLNGKEYKCKVSNKALPAPIEKTISKAKGQPREPQVCTLPPSREEMTKNQVSLWCLVKGFYPSDIAVEWESNGQPENNYKTTPPVLDSDGSFFLYSKLTVDKSRWQQGNVFSCSVMHEALHNHYTQKSLSLSPGK light: DIVMTQSPSSLSVSAGDKVTMSCRASQGISSWLAWYQQKPWQPPKLLIYKASTLESGVPDRFTGSGSGTDFTLTISSVQAEDLAVYYCQQSYSTPWTFGGGTKLEIKGTVAAPSVFIFPPSDEQLKSGTASVVCLLNNFYPREAKVQWKVDNALQSGNSQESVTEQDSKDSTYSLSSTLTLSKADYEKHKVYACEVTHQGLSSPVTKSFNRGEC",2370,0.31 nM,734,–,no binding (tested: 3000 nM),> 1500

# From US20210324028A1 (Pfizer, published 2021)
